These results are taken from the RNAGym collection of RNA variant scans (doi:10.7554/elife.80360).

B1: HDV Ribozyme (parent)
chain: GGCCGGCAUGGUCCCAGCCUCCUCGCUGGCGCCGGCUGGGCAACAUUCCGAGGGGACCGUCCCCUCGGUAAUGGCGAAUGGGACCCA

The variants in this data set derive from B1. The data set is described as follows: self-cleavage, relative activity (ratio to wild type); higher = more cleavage; co-transcriptional.
As to G38U U65G, the self-cleavage turned out to be 0.233.
The figure for G40C A77G is 0.271.
With G40C A77C, the self-cleavage is 0.151.
With G39U C85U, the self-cleavage was 0.674.
The figure for G38A G67U is 0.135.
As for G38A G67A, the figure is 0.0665; as for U37C C41G, 1.11; as for G39U A70G, 0.637.
On to G39U A70C, for which the self-cleavage amounted to 0.536.
As to G39A U60G, the self-cleavage was 0.404.
In the case of G40A U65A, the self-cleavage worked out at 0.914.
The figure for G38C G50U is 0.157.
As for G38C G50A, the figure is 0.188; as for G39C U69A, 0.17; as for G38A C62G, 0.298.
As for G38A C62U, the figure is 0.153.
G38U C41G: the self-cleavage was 0.325.
As for G39U G76C, the figure is 0.724.
The figure for G39U G76A is 0.67; for G39A A87G it is 0.517; for G39A A87C it is 0.578.
As to G38A G59A, the self-cleavage came to 0.0801.
On to G38C C64U, for which the self-cleavage worked out at 0.369.
As for G38A C84G, the self-cleavage is 0.257.
As for G38A C84U, the figure is 0.109.
The figure for G39A A42C is 0; for U37C C62U it is 1.26.
The figure for U37C C62G is 0.0723.
Consider U37C A51G, for which the self-cleavage amounted to 0.966.
As for G38C C62U, the figure is 0.197.
The figure for U37G G59A is 0; for U37G G59U it is 0.256; for G39A U72G it is 0.102.
For the variant G38U A56U, the self-cleavage came to 0.273.
The figure for G38U A56G is 0.193; for G40A C61G it is 1.17; for G39A G59C it is 0.546.
As for G39A G59U, the figure is 0.598; as for G39U U65A, 0.627; as for G39C A70C, 0.175.
As for G39U G55C, the figure is 0.698; as for G39U G53U, 0.587.
Take G39U G59A: the self-cleavage stood at 0.636.
G39A C84G: the self-cleavage came to 0.0852.
The figure for U37C U47A is 0.864; for U37G G82A it is 0.158.
As for U37C A43U, the figure is 0.172.
The figure for U37G A45C is 0; for U37C C66G it is 0.932.
On to U37C A42U, for which the self-cleavage was 0.295.
As for G40A C49G, the figure is 0.944; as for G38C C57A, 0.102; as for G39C C49G, 0.219.
As for U37C A70C, the figure is 1.04; as for G40A G82U, 0.198; as for G40A G82C, 0.0665.
As for G38C G73C, the figure is 0.284; as for G38C C75U, 0.0297.
In the case of U37C C61A, the self-cleavage stood at 1.2.
For the variant U37C C61G, the self-cleavage came to 0.816.
Take G39U C44A: the self-cleavage is 0.0627.
As for G40C A83U, the figure is 0; as for U37G G54U, 0.135.
As for U37G G54C, the figure is 0.0594; as for G38C U72C, 0.341.
Regarding G40A A70G, the self-cleavage stood at 0.914.
As for G40A A70U, the figure is 0.868.
The figure for G39U A43C is 0.237.
Take G39A A77G: the self-cleavage was 0.141.
For G38C U47C, the self-cleavage worked out at 0.161.
As for U37G A42U, the figure is 0; as for U37G A42C, 0.308; as for G38A C66A, 0.0992.
As to G38U A43G, the self-cleavage stood at 0.208.
As for U37C G74A, the figure is 0.196.
In the case of G39A A43U, the self-cleavage came to 0.0241.
In the case of G38C A70G, the self-cleavage turned out to be 0.0978.
The figure for G39C C61U is 0.233; for G39C C61G it is 0.196; for G39A U65G it is 0.264.
The figure for G40A A77G is 1.05.
For the variant G40A G59A, the self-cleavage came to 0.87.
The figure for G38A C61G is 0.138; for U37G G53C it is 0.145; for G39U A87C it is 0.646.
In the case of G39U A87G, the self-cleavage was 0.661.
The figure for G39A C61U is 0.54.
As for G39A C61A, the figure is 0.546.
G39A C63U: the self-cleavage was found to be 0.503.
As for G38C G53A, the figure is 0.313; as for G38C G53C, 0.295; as for G38C C61A, 0.218.
As for G38C C61G, the figure is 0.219.
As for G39C G52C, the figure is 0.309.
For the variant G38A C48G, the self-cleavage was 0.148.
For G38U U47G, the self-cleavage turned out to be 0.166.
As for G38U U47C, the figure is 0.133; as for G38A C49U, 0.119; as for G38U U72A, 0.0378.
As for G38C G39C, the self-cleavage was found to be 0.0426.
The figure for G40A A45G is 0.815.
As for G39U G81A, the figure is 0.228; as for G39C C63G, 0.0437.
As for G38A U65C, the figure is 0.117; as for G38A U65G, 0.181.
As to G38A A70C, the self-cleavage came out at 0.177.
The figure for G38A A70U is 0.148; for U37C G39A it is 0.0997; for U37C G39C it is 0.177.
Turning to U37C G82C, the self-cleavage was 0.268.
The figure for U37C G82A is 0.173; for U37C G82U it is 0.399; for G40A U46C it is 0.525.
Regarding G39A A56U, the self-cleavage is 0.676.
For the variant G39A A56C, the self-cleavage was 0.447.
On to G38U A45G, for which the self-cleavage came out at 0.0426.
Consider G38U A45U, for which the self-cleavage is 0.158.
The figure for U37C C86U is 1.06; for U37C C86G it is 0.956; for G40A C84A it is 0.917.
As for G38U G68C, the figure is 0.245.
The figure for G39U G54C is 0.76; for U37C A78U it is 0.161; for U37C A78G it is 0.475.
Consider U37C A78C, for which the self-cleavage is 0.196.
Take G39A U47A: the self-cleavage was found to be 0.356.
On to G39C G54A, for which the self-cleavage came out at 0.188.
The figure for G38A G68C is 0.197; for G38A G68U it is 0.18; for G38A U46C it is 0.138.
The figure for G40A C62G is 0.432; for G39U A42C it is 0.237.
As for G39U A42U, the figure is 0.378.
With G38C C84U, the self-cleavage came to 0.158.
For the variant G38A C63U, the self-cleavage worked out at 0.0923.
As for G38U C49U, the figure is 0.172; as for U37G C85G, 0.201; as for G38U C66A, 0.185.
Regarding G39C C62A, the self-cleavage came out at 0.244.
With G38C A71G, the self-cleavage worked out at 0.166.
The figure for G38C A71U is 0.0449; for G39A G67U it is 0.351; for G39C G76U it is 0.831.
For the variant G38C C85U, the self-cleavage was 0.185.
The figure for U37G C48G is 0.111.
The figure for U37C U69C is 0.89; for G39A C58G it is 0.363; for G38C C41U it is 1.08.
As for G38C C41A, the figure is 0.612.
With G38C A42G, the self-cleavage amounted to 0.0449.
The figure for U37G C66U is 0.196.
Consider G38U C48G, for which the self-cleavage was found to be 0.156.
For the variant G40C A51C, the self-cleavage was 0.111.
With G40A A42G, the self-cleavage stood at 0.475.
Take G39U G82C: the self-cleavage worked out at 0.168.
The figure for U37C U65G is 0.906; for U37G G74A it is 0.229.
For the variant G39C U72A, the self-cleavage turned out to be 0.0426.
In the case of G39A G82U, the self-cleavage was determined as 0.0536.
The figure for G38U C86G is 0.0573.
For the variant G38U G39U, the self-cleavage is 0.0573.
As for U37G U47G, the figure is 0.
For U37G C84U, the self-cleavage was found to be 0.111.
As for G39C U47C, the figure is 0.166; as for U37C C57G, 1.1.
As for G39U U72G, the figure is 0.284.
G39U U60C: the self-cleavage is 0.772.
